The results in this text go back to publication PMC9612522.

In this test the target is His-Pak4cat (UniProt O96013).
Chain of UniProt O96013 (O96013 286-591): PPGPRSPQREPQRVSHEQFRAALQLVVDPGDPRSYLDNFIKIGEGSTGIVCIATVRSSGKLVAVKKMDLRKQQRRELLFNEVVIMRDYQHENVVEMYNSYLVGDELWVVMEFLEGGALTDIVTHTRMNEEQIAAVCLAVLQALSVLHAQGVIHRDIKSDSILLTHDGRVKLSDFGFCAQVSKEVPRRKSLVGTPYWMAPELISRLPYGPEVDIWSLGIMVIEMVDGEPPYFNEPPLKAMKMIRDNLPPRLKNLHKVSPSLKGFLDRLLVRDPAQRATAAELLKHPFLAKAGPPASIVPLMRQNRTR

Chain of GST-Inka2-iBox (Q9NTI7 133-193): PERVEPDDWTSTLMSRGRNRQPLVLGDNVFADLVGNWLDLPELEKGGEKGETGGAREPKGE
Chain of GST-Inka1-iBox (Q96EL1 166-203): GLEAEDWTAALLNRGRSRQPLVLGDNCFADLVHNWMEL

As for “GST-Inka1-iBox (from UniProt Q96EL1 166-203) (domain or fragment)”, the IC50 of inhibition of His-Pak4cat kinase activity (in vitro kinase assay, ADP-Glo luminescence, AKT1 peptide substrate; dose-response with 0.75 ng-400 ng of GST-Inka1-iBox) turned out to be 67.7 nM.
As for “GST-Inka2-iBox (from UniProt Q9NTI7 133-193) (domain or fragment)”, the IC50 of inhibition of His-Pak4cat kinase activity (in vitro kinase assay, ADP-Glo luminescence, AKT1 peptide substrate; dose-response with 0.75 ng-400 ng of GST-Inka2-iBox) was determined as 60.3 nM.
